Substitutions are numbered along the chain they refer to.
B1: ApoE4 N-terminal domain (NTD) as seen in the crystals grown from His-MBP-ApoE4M (domain or fragment, human, UniProt P02649 40-183, looked up)
chain: SGQRWELALGRFWDYLRWVQTLSEQVQEELLSSQVTQELRALMDETMKELKAYKSELEEQLTPVAEETRARLSKELQAAQARLGADMEDVRGRLVQYRGEVQAMLGQSTEELRVRLASHLRKLRKRLLRDADDLQKRLAVYQAG
notes: apolipoprotein E, isoform ApoE4 (R112/R158), human; only residues ~22-165 (NTD) were obtained in the structures; the five mutations lie outside that range; also called ApoE4 NTD; source: E. coli BL21(DE3), purified (Ni-NTA, SEC; no cleavage step)
B2: APOE3M-AP (domain or fragment, human, UniProt P02649 42-317, looked up)
chain: QRWELALGRFWDYLRWVQTLSEQVQEELLSSQVTQELRALMDETMKELKAYKSELEEQLTPVAEETRARLSKELQAAQARLGADMEDVCGRLVQYRGEVQAMLGQSTEELRVRLASHLRKLRKRLLRDADDLQKRLAVYQAGAREGAERGLSAIRERLGPLVEQGRVRAATVGSLAGQPLQERAQAWGERLRARMEEMGSRTRDRLDEVKEQVAEVRAKLEEQAQQIRLQAEAAQARLKSRFEPLAEDMQRQWAGQVEKVQAAEGTSAAPVPSDNH
notes: apolipoprotein E, isoform ApoE3, human, residues 1-23 (helices N1 and N2) deleted, with the five monomerizing mutations; Truncated variants were cloned into NdeI/BamHI of pET-21b; also called ApoEM-AP; aggregation-prone ApoEM; source: E. coli BL21(DE3), purified (Ni-NTA, 3C protease cleavage, SEC); not shown: His, N-terminal, cleaved; thioredoxin, N-terminal, cleaved
B3: APOE4M-AP (domain or fragment, human, UniProt P02649 42-317, looked up)
chain: B2 chain with C89R
notes: apolipoprotein E, isoform ApoE4, human, residues 1-23 (helices N1 and N2) deleted, with the five monomerizing mutations; Truncated variants were cloned into NdeI/BamHI of pET-21b; also called ApoEM-AP; aggregation-prone ApoEM; source: E. coli BL21(DE3), purified (Ni-NTA, 3C protease cleavage, SEC); not shown: His, N-terminal, cleaved; thioredoxin, N-terminal, cleaved

Experiments:
[1] = target: the molecule itself; experiment: crystal structure; His-MBP-ApoE4M ~8 mg/ml, hanging drop vapour diffusion; four crystals in two space groups (P212121, P3121); dimeric unit of two NTDs (chains A and B) from crystal packing contacts
[2] = target: the molecule itself; experiment: dynamic light scattering; ~0.2 mg/ml, room temperature, size distribution after SEC purification

| Protein | binding result [1] | binding result [2] |
| --- | --- | --- |
| B1 | binds | – |
| B2 | – | binds |
| B3 | – | binds |

Reference: article PMC10245438, “Domino-like effect of C112R mutation on ApoE4 aggregation and its reduction by Alzheimer’s Disease drug candidate” (Molecular Neurodegeneration, 2023)
